In article PMC4546420:

Molecular target: MBP-linker-MPR-TM (HIV-1) (UniProt P04578)
Test: SEC; Superdex-200 HR 10/300, 20 mM NaCl, 20 mM Tris-HCl pH 7.5, 0.015% beta-DDM; calibrated with protein standards; protein in beta-DDM micelles

MBP-linker-MPR-TM (from UniProt P04578 649-705) (domain or fragment)
stoichiometry N: > 6
